Source: patent US20230213527A1 (published 2023)
Primed or numbered codes have the meaning given here. Ends that are not written are not given here. FITC′ = not defined here

Assays:
Test in all cases: fluorescence polarization
[1] = target: labeled peptide with N-terminal isoleucine (X…-FITC, SEQ ID NO: 833, X = I) (C-terminal FITC label)
[2] = target: T1, labeled peptide with N-terminal leucine (XAKLDEESILKQK-FITC, SEQ ID NO: 833, X = L)
T1 peptide: LAKLDEESILKQK-{FITC′}

[3] = target: labeled peptide with N-terminal valine (X…-FITC, SEQ ID NO: 833, X = V) (C-terminal FITC label)

B1: PS961 (designed binder)
chain: MPTAASATESAIEDTPAPARPEVDGRTKPKRQPRYHVVLWDDDDHTYQYVVVMLRSLFGHPPSRGYRMAKEMDTQGRVIVLTTTREHAELKRDQIHAFGRDRLLARSKGSMKASIEAEE
Kd [1]: 68 nM | Kd [2]: 55 nM | Kd [3]: 144 nM
